# Assay: soluble on expression in E. coli; label from the status in PepcDB or PDB records
row,Sequence,soluble on expression in E. coli
1,PLRLALSKLLVKANQPSAALSPLVHLPPMPSRDYLAMRAALAQKQKQNDIALESYQLLTQREPDNARWWLGLAIQQERALTFTAAINSYNEALGKVGISNQSQAFIRDRLTILKQLESAQ,not soluble
2,PLSQVVRFHASSGTTGKPTVVGYTANDIRNWVESLCRALVSCGVSSDDIMQIAYGYGLFTGGLGFHYAAERLGATVLPISAGNTARQIELMKDLGSTVMACTPSYMIYLAEYASQMGVDIAEDTNLRAGIFGAEPWSEETRKRIEDKTGITAYDVYGTSELSGPLFTECTER,not soluble
3,PPTGECRTVVFDFDGVLAEGFEGEVRPRPLGVALARRLIGRGYRVYIVSGRPEQERSLIARLLREWCIPLGGVRGIILRRRGVGEVDHKLESIMEVEAREGCVGEVHDDNPYVLEALRRRVETLVLHTPR,not soluble
4,PRVPSAGAAECKGEISNVQWKNDTNIKDGVFVGSYGQGADVQFDWKVDPGAKAGDQFTLKLPNELSRLGNKDLTLTAPSGEEVAKGTWDDVAKTWTFTLTDYANSHGDISGSAFFTVQWDRSVAQSNTQYPLTFSGCKGAGTLNGKTPEEGVGGTAQATSKTGLYDSKTDSARWNIYVETADTDIYTPVVVKDIGNTQLLFRCSDVKVFDRTPYPHTKIRDTPIDPNRWKCEEKDGGIIVSMVPDEHGRYLTAGQSLTIGFETPINDDTSRFITNKAIVEISPNKIENVEYSVDRGDAGGVGQGFQGKIKIQKEVVGETAPVQGNKFDFEYKCGETTQNISVAAGQTSDIFTQRSSSTCSITEKNVAEGVTVDFEVIDEETGKPAYVVPIDNGVTVKFNKNSSTTLNVKVTNTYPNKPEAKKGKFVIKKTVNGLDAGQKDKAFKFNYTCKAPDGDAYTEPQLAEVTAGRTWQSGNYPEGTICTIEEDLESAKVPGYSLISAQPKGDVTIKAEGTEGSPVEFAATNSYTKDLGSFSVQKKIEASAEAMPLLKDQEFGFKYTCGADKGEFKLKNGETKKVERIATGTKCTVEESDAKVPNGFMWTGKIEGTDLDPNDFTIVKDKTLAFTATNTYKQQYGGFTLSKNVTGDATNLEELQKRSYTFNYTCTAPTGTVLKDKVEITEETPKAIGNIPAASTCKVTEVEAPAKDTDWTVDLSVNGTWVGETAEFKVPAEGEPSISILAKNNYRQHKGSFTIEKIVDASEGIVTPKEFTFTWQCGEDKGAETVRVTNGKGRVEIDRAFPVGTKCSVKELEAEAEDARLITSWENQEFTIDKDKQHVIVSATNTYRYAESKVKIVKKLEGPAKDKAKDKTFTFDYSCVVNNEAIEGSVNITGEGATEIPESFPAGTKCTITERDASISGTTWTHRIAEDGQITIQSPAKVYQVGVTNAYSKPGFP,not soluble
5,PSMPASPVLTKAGITWLSLQWSKPSGTPSDEGISYILEMEEETSGYGFKPKYDGEDLAYTVKNLRRSTKYKFKVIAYNSEGKSNPSEVVEFTTCPD,soluble
6,PVAMKEAQKRLGDKVEYTTDMYDAVRGAEALFHVTEWKEFRMPDWSALSQTMAASLVIDGRNVYELPADSDFTLLNIGNSAIESASSK,not soluble
7,PVIGSVAPESLAAQAGLEAGQELLAVDGEPVTGWNGVNLQLVRRLGESGTLEVRVQEKGSNVDSTHQVRLDGWLKGEDNPDPIASLGIRPWRPALPPVLAELDPKGPAQAAGLKLGDRLQSIDGIAVDDWQQVVDSVRARPGQRVQLKVLRDGEVLDVALELAVRGEGKARSGYMGAGVAGTEWPAEMLREVSYGPLEAVGQALSRTWTMSLLTLDSIKKMLLGELSVKNLSGPITIAKVAGASAQSGVGDFLNF,not soluble
8,PVMADTIKLRIVETTDIHTNLMDYDYYKDKASDQIGLTRAATLVKQARAEVENSVLVDNGDLIQGSPMGDYMAAKGIKAGEVHPVYKAMNPLGYDVGNIGNHEFNYGLEFLKETINDAAFPYINANVFDAKTGQHLFTPYVIKEHSFKDTDGEAHTIKVGYIGFVPPQIMVWDKKNLEGKVTAADIKQTAEKLIPEMKAKGADVIVAIPHSGISTDEYQAGAENSVYYLTQVKGIDAIAFGHSHAVFPGKDFANVPGADIDKGTINGVTAVMPGRWGSHVGVMDLTLEKQQGRWAVTSGQSEARPIFDKANKKALVEADATMVQALQHDHQGTRDFVNQ,not soluble
9,QADAGPDKELTLPVDSTTLDGSKSSDDQKIISYLWEKTQGPDGVQLENANSSVATVTGLQVGTYVFTLTVKDERNLQSQSSVNVIVKEE,soluble
10,QAFVSAQTSTIPKTAFTAHDFVDYTLPQEQKGKEQKEQQWMKNSQTKDTDVHPYADFAVLEILLFPDSSTDRKIFNHFIQPAIRAYKQLGDSLNIFANQTLDQPKHNRYYLLGYPFLRNKAASLFLNQTEQRKEHMDKTTQILHEKPFVVLTDPAKPTLIRNKGANFTGNTWTSNYDL,not soluble
11,QDGGYSAREFMIFSSQPAEIADKIMKDLERGSTYINIEGAYKRTPGKAVYVVVDPSEVRQVREIIEEIDPKAFVSIRIVSEQLGEGFTYLRKKRSIFGR,not soluble
12,QDLTVKMTDLQTGKPVGTIELSQNKYGVGFIPELADLTPGMHGFHIHQNGSCASSEKDGKVVLGGAAGGHYDPEHTNKHGFPWTDDNHKGDLPALFVSANGLATNPVLAPRLTLKELKGHAIMIHAGGDNHSDMPKALGGGGARVACGVIQ,soluble
13,QDTSPDTLVVTANRFEQPRSTVLAPTTVVTRQDIDRWQSTSVNDVLRRLPGVDITQNGGSGQLSSIFIRGTNASHVLVLIDGVRLNLAGVSGSADLSQFPIALVQRVEYIRGPRSAVYGSDAIGGVVNIITTRDEPGTEISAGWGSNSYQNYDVSTQQQLGDKTRVTLLGDYAHTHGYDVVAYGNTGTQAQTDNDGFLSKTLYGALEHNFTDAWSGFVRGYGYDNRTNYDAYYSPGSPLLDTRKLYSQSWDAGLRYNGELIKSQLITSYSHSKDYNYDPHYGRYDSSATLDEMKQYTVQWANNVIVGHGSIGAGVDMQMQMTTPGTGYVEDGYDQRNTGIYLTGLQQVGDFTFEGAARSDDNSQFGRHGTWQTSAGWEFIEGYRFIASYGTSYKAPNLGQLYGFYGNPNLDPEKSKQWEGAFEGLTAGVNWRISGYRNDVSDLIDYDDHTLKYYNEGKARIKGVEATANFDTGPLTHTVSYDYVDARNAITDTPLLRRAKQQVKYQLDWQLYDFDMGMTMQYLGTRYDKDYSSYPYQTVKMGGVSLWDLAVAYPVTSHLTVRGKIANLFDKDYETVYGYQTAGREYTLSGSYTF,soluble
14,QECTKFKVSSCRECIESGPGCTWCQKLNFTGPGDPDSIRCDTRPQLLMRGCAADDIMDPTSLAETQEDHNGGQKQLSPQKVTLYLRPGQAAAFNVTFRRAKGY,soluble
15,QEGTSPMQKETRFLPGTNVEYEDYSTFFDKFSASGGFVLFNSNRKKYTIYNRKESTSRFAPASTYKVFSALLALESGIITKNDSHMTWDGTQYPYKEWNQDQDLFSAMSSSTTWYFQKLDRQIGEDHLRHYLKSIHYGNEDFSVPADYWLDGSLQISPLEQVNILKKFYDNEFDFKQSNIETVKDSIRLEESNGRVLSGKTGTSVINGELHAGWFIGYVETADNTFFFAVHIQGEKRAAGSSAAEIALSILDKKGIYPSVSR,soluble
16,QHGSSTDPSFVALRNNSSLSCDGKSRLLEFGNDLGFSKEETDVLAKQKNWEQNYTNFKKQFEHKLLDPKSFSLTDVYNLFSGFQQSVADTVKLMNELQTQVNKANDIYPVESFQVPKVPQKLFGFVDQGFFPKLNPKGLNIADNVASLFEKYSLKQATLKDFDIVLEKKNDIVLEHKVRYNFALQ,not soluble
17,QHTEERELKKRLMNTARTVSEMTEVKEALARKKQTEAVRHAVEEIRMINEADYIVVMDMNHIRYTHPVSTSIGKKSEGADEEAAFAEHIYFSEAKGEIGTAVRAFYPVKDQDLNQIGVVLVGKTLPGIADILLHLKRD,not soluble
18,QIGELKTTVGNSTIKVNDEVQVGSAFEAILGIEGLNGDTEVYSAEYLFEYNAEAFILNEITSFNDSLFVKSKEVEPGKVRILVASLGNEIEKDSDLVKVNLTPKISSELEVLGLTTALVGAGDGNTHDLELSSKEVKINEEAS,soluble
19,QNEEEADRIGIQVLQRSGFDPQAMPMFMGKLLDESRYSTRPPEMLLTHPLPESRLADARNRANQMRPVVVQSSADFYLAKARTLGMYTNGDNKLGTDLLNAWDKGNIRQQHAAQYGRALLAMESNNFDQARKTLQPLLNADPQNAWYLDLATDIDLGQKKTSDAINRLKNARELRTNPVLQLNLANALLQGGQPGEAATILNRYTFTYKEDGNGWDLLAQAEGALGNRDQELAARAESMALVGQLEQA,not soluble
20,QSRTPTIFFHGYGSSANAETHMTNAAKKAGVTKTVILAYVDQNGHVTLVGKIPKNAINPIVKVNFADNRNADYDTDAKYAKAVVSKLQKTYHFKKMNMVGHSMGNMAINFYMLANAEDKTLPQLQKQVDIAGHFDGIKNYDLPQNLTINAKTGQPNAMTAAYKRLLKLQERYPKDQVDVLNLYGDKGDGSDGIVTNDSSRTLKYLIGERAKSYQEHRFTGKLAGHSKLHENPQVDKFLINFLWGK,not soluble
21,QSTVKIILEEDTETLDEVVVVGYGVQKKSDVTGAMARVTSKVIEDRPVQNALQAMQGRVTGVDITSNNRPGELGDIRIRGNRSLTADNNPLYVIDGIPMSAGSIADVNPSDIESMEILKDASATAIYGSRGANGVILVTTKKGKTGR,not soluble
22,QTIKDFLAVAMKKWTAPFEPFQLIDNIYYVGTDGIAVYVIKTSQGLILMDTAMPQSTGMIKDNIAKLGFKVADIKLILNTHAHLDHTGGFAEIKKETGAQLVAGERDKPLLEGGYYPGDEKNEDLAFPAVKVDRAVKEGDRVTLGDTTLTAHATPGHSPGCTSWEMTVKDGKEDREVLFFCSGTVALNRLVGQPTYAGIVDDYRATFAKAKAMKIDVLLGPHPEVYGMQAKRAEMKDGAPNPFIKPGELVTYATSLSEDFDKQLAKQTAALEKK,soluble
23,QTNSPASIPHLILELLKCEPDEPQVQAKIMAYLQQEQSNRNRQEKLSAFGLLCKMADQTLFSIVEWARSSIFFRELKVDDQMKLLQNCWSELLILDHIYRQVAHGKEGTIFLVTGEHVDYSTIISHTEVAFNNLLSLAQELVVRLRSLQFDQREFVCLKFLVLFSSDVKNLENLQLVEGVQEQVNAALLDYTVCNYPQQTEKFGQLLLRLPELRAISKQAEDYLYYKHVNGDVPYNNLLIEMLHAKRA,soluble
24,QWGAPEAQKMARDLRSFALSGGSIVSVRAGVWARDANDFIFIGKVEDDKLYALNMWRFDDDKNLEKVIFAEEVDYQQDNNWLMRDVQITNMQDENVISKQEMDQMEWHTSLAPDKLAVVTVKPEELSLSGLYDYVTYLKASEQDASRYELAFWRKLTQP,not soluble
25,QYRIIDFKRDKDGIPGRVATIEYDPNRSANIALINYADGEKRYIIAPKNLKVGMEIMSGPDADIKIGNALPLENIPVGTLVHNIELKPGRGGQLVRAAGTSAQVLGKEGKYVIVRLASGEVRMILGKCRATVGEVGN,soluble
26,QYWDLRKTQQTGQCQSREDYYSAFRNEIQQSIRQSIRTDAEIMAHYSGGLDSSSIASIAALQLAKENKTLMAYTAIPKYLSGDSHRKGCKYHELDRVQSACRYYDNIETIVYQSSEDLSIFDKLQVFYPYLDQPFKAVFNMEWILAGLEMAAAKNCRILLNGEQGNGSISWKGVTLGNYLNQRVKFTRHLLKYHMKLGKQFIKSGSLNLKKNRTDLNEMKKNFLEPHYSLLRGKNRLETRSYMRSIYLWFGVEVIDPTSNLDLVQFCYDLPEWVYHGGNKYFEIRRLPKLKRRLLVRDALEGLVPPEIRHNPYRGEQAADWYYQFNKYGHAWGRLLADIAEKHPLIWEIYPKKYLLDLFANHPISPQSRNFQDVNMHLVPALSTAFFINYLNDLY,not soluble
27,RAGLSKLPDLKDAEAVQKFFLEEIQLGEELLAQGDYEKGVDHLTNAIAVCGQPQQLLQVLQQTLPPPVFQMLLTKLPTISQRIVSAQSLGEDDVE,soluble

# Source: the DeepSol protein solubility set
